One test concerns the target T1, IL-2Rα-Fc fusion protein (human, UniProt P01589 22-240).
T1 construct: also called human IL-2Rα (CD25); CD25; not shown: Fc part and any linker are not described; captured on an anti-human IgG Fc sensor
T1 sequence: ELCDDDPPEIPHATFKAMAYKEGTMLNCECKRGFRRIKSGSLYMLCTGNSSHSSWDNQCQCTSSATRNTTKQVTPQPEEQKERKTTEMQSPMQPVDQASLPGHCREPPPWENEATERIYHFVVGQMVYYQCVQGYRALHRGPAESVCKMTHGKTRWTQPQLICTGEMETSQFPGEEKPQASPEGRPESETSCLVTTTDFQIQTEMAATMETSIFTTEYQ
Briefly: BLI (Octet RED96), IL-2Rα-Fc on AHC biosensor. The method, then:
OCTET® RED96 was used to characterize the interactions of a wild-type hIL-2 and hIL-2 muteins with a human IL-2Rα (CD25). Briefly, an IL-2Rα-Fc fusion protein was loaded onto an anti-human IgG Fc capture (AHC) biosensor. The biosensor was then dipped into a solution containing a wild-type hIL-2 (WT IL-2) or an IL-2 mutein at various concentrations. Primary experimental data was analyzed with global fitting to determine a binding affinity (Kd).
For orientation: BLI is a label-free optical method that tracks binding on a fibre tip over time.

Test [1] addresses T2, IL-2Rα, β, and γ chains on preactivated human CD3 T-cells (human, UniProt P01589 22-272; P14784 27-551; P31785 23-369).
T2 sequence (looked up) 1: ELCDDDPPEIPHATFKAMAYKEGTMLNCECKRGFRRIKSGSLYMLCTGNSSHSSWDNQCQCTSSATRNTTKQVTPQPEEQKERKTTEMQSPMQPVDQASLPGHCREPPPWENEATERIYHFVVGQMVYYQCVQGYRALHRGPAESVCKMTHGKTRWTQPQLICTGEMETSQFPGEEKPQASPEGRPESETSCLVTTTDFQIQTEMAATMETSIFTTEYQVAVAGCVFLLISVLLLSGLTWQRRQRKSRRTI
T2 sequence (looked up) 2: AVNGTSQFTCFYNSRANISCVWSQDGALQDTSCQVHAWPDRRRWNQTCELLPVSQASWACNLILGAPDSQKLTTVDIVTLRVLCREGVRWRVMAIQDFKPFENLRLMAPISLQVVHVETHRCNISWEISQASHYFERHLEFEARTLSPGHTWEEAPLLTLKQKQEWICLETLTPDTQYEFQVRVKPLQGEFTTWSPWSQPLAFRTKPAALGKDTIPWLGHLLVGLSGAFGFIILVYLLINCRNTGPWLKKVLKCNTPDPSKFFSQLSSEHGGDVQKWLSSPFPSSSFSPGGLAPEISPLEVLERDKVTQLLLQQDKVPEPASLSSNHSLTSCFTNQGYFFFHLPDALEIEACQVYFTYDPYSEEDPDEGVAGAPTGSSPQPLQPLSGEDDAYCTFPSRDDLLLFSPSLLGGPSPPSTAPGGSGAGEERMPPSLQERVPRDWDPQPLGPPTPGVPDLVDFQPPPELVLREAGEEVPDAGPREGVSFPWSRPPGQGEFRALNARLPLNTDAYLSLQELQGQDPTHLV
T2 sequence (looked up) 3: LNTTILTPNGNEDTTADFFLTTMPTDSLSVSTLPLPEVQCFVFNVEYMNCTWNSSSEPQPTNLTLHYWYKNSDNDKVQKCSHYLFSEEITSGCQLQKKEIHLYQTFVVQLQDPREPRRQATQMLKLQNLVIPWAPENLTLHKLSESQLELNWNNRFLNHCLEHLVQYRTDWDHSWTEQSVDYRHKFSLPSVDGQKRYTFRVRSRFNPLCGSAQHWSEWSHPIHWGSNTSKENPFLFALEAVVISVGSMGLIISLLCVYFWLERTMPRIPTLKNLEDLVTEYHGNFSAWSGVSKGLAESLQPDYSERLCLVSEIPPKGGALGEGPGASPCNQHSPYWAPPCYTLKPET
As to the kind of experiment: cell-based or functional assay.

B1: hIL-2-anti-HSA A37 (ligand)
chain: APTSSSTKKTQLQLEHLLLDLQMILNGINNYENPKLTRMLTAKFYMPKKATELKHLQCLEEELKPLEEVLNLAQSKNFHLRPRDLISNINVIVLELKGSETTFMCEYADETATIVEFLNRWITFSQSIISTLTGSGGSGGSGGSGEVQLVESGGGLVQPGGSLRLSCAASGSTWSINTLAWYRQAPGKQRDLVARISSGGSTYYADSVKGRFTISRDNSKNTLYLQMNSLRAEDTAVYYCYAQSTWYPPSWGQGTLVTVSS
notes: fused to anti-HSA VHH; also called IL2 mutein (K32E, F42A, C125S)
On to B1, for which, in the test with IL-2Rα-Fc fusion protein, the binding result is “no binding”. Also, the “EC50 of STAT5 phosphorylation (phospho-STAT5 Tyr694 HTRF)” value in test [1] amounted to 0.92 nM.

These data come from patent US20210340208A1 (ANWITA BIOSCIENCES, published 2021).
